Assay results: patent US20140289906A1, “Compositions Having Dicamba Decarboxylase Activity and Methods of Use” (priority 2013, published 2014)

B1: 17 (protein)
chain: MARGKIALEEAFEVKGMDEEIDAQAALYIAPKDVERYKRQIVSITDERLQLSDQNGIGYSILSLTVPGIQGITDKDKAEKRARDVNNYIHDQIKDHRDRLGAFAALSMHDPRQAGHELRRCVKELGFHGALLNDVQHTGEGDDDQPLFYDQPDYDEFWRVAVELDVPVYLHPAAPLRDTLIYKQSYEDRKYLVGPPQSYCNGVALHLMGIIVNGVFDRFPNLKVIVGHMGERIPFDFWRMDHWVKGVTRPLAEKNGDTVCQKEPLYYFKRNIYITTSGHFSTQNLRYLYEWLGDERMMFSVDFPYERMEHGCQWYDDDAEKIKEALGGRDGYLRVGRDNARRLFKLTKFKDCDAV
modifications: Aspergillus niger
B2: 23 (protein, listed as Aplysina aerophoba)
chain: MAIDIDARSQPGLETARRAMSRRDFLGGAAAFGITAAATTALPASTAAGEEEDLFLLGLEEHFATAELRRLNGIQFPQGTPRFDINDVGAGRIADMDAAGIDIQVLSALTPGAQNLPGAEGVAYARRLNSWVAHEVIPAYPGRFRAFATLPLSEPQAAADELEYAVRELGFLGCMTYGAVDGKFLDHADFVPVLARAETLDVPIYIHPNWASPQVMDTYYNGLGNEWVSRVLSGAGYGWHQEVALQCLRMIASGVFDRFPRLQIIVGHMGEGLPFFYWRFGDDLARITADTLEKPVQQYFHDNFWITTSAFFRDELLRLVLSVMGEDRVMFAVDYPFVSNKVGADWFRAVDLPRNVKEKIAHKNAERLLKIGPF
B3: 10 (protein, listed as Starkeya novella)
chain: MARKIALEEHFTTPELAGKYVARPTQSDALFADIERRLADFDELRLEMMDRAEIDLMVLSVTTPGVQGVRDTGEAIRLARGANDFLAREVQKRPSRYAGFAHLAMQDAEAAATELERAVRELGFRGALINGQTNGHYLDEDQYAPFWERVQELDVPVYLHPGNMADSPAMFAHRPELGGPIWAWTAETAAHALRLVFGGTFTRFPGAKVILGHMGETLPFLLWRLDSRREFDLGEKLAPDALPSAIIKRNIAVTTSGVCDPAPLVAALQALSDDNVMFSVDYPYEDPQLASKFIETAPIGEETRAKVCHGNAERLLGL
B4: 13 (protein, listed as Metarhizium acridum)
chain: MAHGKVALEEAFALPRLHEKTRWWASLFAVNPDKHAAEMTDITDIRINYMDKHGVGYTILSYTAPGVQDISDPKEAQALAVEINDYVAGAIKNHPDRFGAFATLSMRNPQEAATELKRCVTQYGFKGALVNDTQRAGEDDMIFYDGPEWDVFWSTVEELDVPFYLHPRNPTGSLYEKLWAKRKWLVGPPLSFAQGVSLHVLGMVTNGVFDRHPKLQVVLGHLGEHIPFDMWRINHWFEDVKKPLGLDCKKTIREYFQQNIWITTSGHFSTTTLQFCMAEVGADRILFSIDYPFECFADACDWYDGVPINLVDKAKIGRDNARRLFKLPEFKDSEKHVDA
B5: 14 (protein, listed as Talaromyces marneffei)
chain: MARGKVSFEEAYEIPALADKSREQAALYIAPKDLDRYLSEIKSPTGGRLDISNKNGIGYTIYSLTVPGVQGIADKAKAEKHATDVNNWIYNEIKDHRDRMGAFAALSMHDPVQAGQELERCVKKLGFHGALLNNWQHAGTDGETYIFYDHPSYDVFWQKCVELDVPVYLHPSAPSGKVFDTFFKDRRYLIGPPISFAQDVALHTMGLITNGVFDRNPKLKLILGHLGERIPQDLWRTNHWLEDVERPLADSRGDTMSRKPLLYYFKNNIYVTTSGHFSTETVKFVCDYFGADRILFSVDSPYEKIEEGAGWYDKDKDNLTKALGGPQQYLDVGRENAKKLFKLGKYHDCDA
B6: 12 (protein, listed as Zymoseptoria tritici)
chain: MALGKVAFEEAFALPRFKERTTWWAGLFAVDPEKHTREINDINKLRIEKMDQFGVGYTLLSYTAPGVQDVWQQEEADALAREVNDHVAAEIKGHEDRLGALATLSMHDPQTASAELRRCIKDYGFKGALVNDTQRNDESGTGMIFYDGPEWDVFWSTVQELDVPFYLHPRNPTGVFMEKLWAPRKWLVGPPLSFAQGVSLHLLGMVTNGTFDRFPNLQVIIGHLGEHLPFDLWRINHWFEDIKKPLGLDCKKTIREYFNENIWITTSGHFSTPTLEYCIKEIGAERILFSIDYPFEKFEDACDWYDGVELDGPDTVKKIGRENAKKLFKLGAFKDDSA
B7: 18 (protein, listed as Legionella pneumophila)
chain: MAIVDFETHFITEACIDYLTQRQEVPKLVPELNGAYTMCFTPDVSLFHTSALMEELLSLNEQRLAIMDQAGVTIQVLSLTTINGIDSCPGDENKSTALAREVNDQLYSAIQKHPERFKGFASISPYDVKEGVKELERAISQLGFVGWLTHSNFGQDNYLDDKIYWPLLEAAESLNIPIYLHPNVPIMREFGKYGFALGGSALGFEFDTALCLMRMILGGVFDAFPKLKIMLGHLGETMPFLMERLDHLYRIPDLKPYRPSIQRIPSEVLRQNVYITTSGRFFVPALRYVLEVMGEDRVLFASDYPMESLLDATRFIQDSDLSNQTKQKIFSINAKNLNLI
B8: 20 (protein, listed as Legionella pneumophila)
chain: MAIVDFETHFITEACIDYLTQRQEVPKLVPDLNGAYTMCFTPDVSLFHTSALMEELLSLNEQRLAIMDQAGVTIQVLSLTTINGIDSCPGDENKSTALAREVNDQLYSAIQRHPERFKGFASISPYDVKEGVKELERAISQLGFVGWLTHSNFGQDNYLDDKTYWPLLEAAEGLNIPIYLHPNVPIMREFGKYGFALGGSALGFEFDTALCLMRMILGGVFDAFPKLKIMLGHLGETMPFLMERLDHLYRIPDLKAYRPSIQRIPSEVLRQNVYITTSGRFFVPALRYVLEVMGEDRVLFASDYPMESLLDATRFIQDSDLSNQTKQKIFSINAKNLNLI
B9: 15 (protein, listed as Metarhizium anisopliae)
chain: MAQEIAKSHETSTRFAGFAVLPMRDPEAAAKELERAVKKLGFVGALVDHKTAHGNGFCEGNEYDVLWRKAEQLAVPIYLHPSWPTEKQFQQAYAGNYSPTAAGTIGGAMFNWHSEVGHHVLRLYAAGVFDKFPKLKIIIGHFGEMIPYMLDRIREQDHRLGKTGRTFSEVYDENIWITTSGVWSLDPMRCILANTKIDHILYSVDYPFTMNERGLEWFQELEKSGLLSEEDLALIAYKNCEKLLGVKAPTQD
B10: 11 (protein)
chain: MALGKIALEEAFALPRFEEKTRWWASLFSVDPETHVKEITDINKLRIEHADKYGVGYQILSYTAPGVQDIWDPVEAQALAVEINDYIAEQIRDKPDRFGAFATLSMHNPQEAASELRRCVQTYGFKGALVNDTQRAGPDGDDMIFYDNASWDIFWQTCTELDVPLYLHPRNPTGTIYEKLWADRKWLVGPPLSFAQGVSLHVLGMVTNGVFDRHPNLQLIMGHLGEHVPFDMWRINHWFEDRKKLLGLAETCKKTIREYFAQNIWITTSGHFSTTTLNFCMAEVGVDRILFSIDYPFETFEDACVWFDGAELNLSDKAKIGRDNAARLFKLGAFRDYDAKVKA
modifications: Aspergillus niger

Assay: 14C assay: 14CO2 capture from [14C]-carboxyl-labeled dicamba with IPTG-induced recombinant E. coli cells
Settings: for Dicamba Decarboxylase Activity: IPTG-induced recombinant E. coli cells, 14CO2 from [14C]-carboxyl-labeled dicamba; for Enzymatic Detection level: dicamba decarboxylation activity

Row | Molecule | Dicamba Decarboxylase Activity | Enzymatic Detection level
1 | B1 | Low | Low
2 | B2 | Low | Low
3 | B3 | Low | Low
4 | B4 | No | No
5 | B5 | Low | Low
6 | B6 | No | No
7 | B7 | Low | Low
8 | B8 | Low | Low
9 | B9 | Low | Low
10 | B10 | Low | Low
